{"source": "patent US20200399712A1", "about": "“COMPOSITIONS AND METHODS FOR THE DIAGNOSIS AND DETECTION OF TUMORS AND CANCER PROGNOSIS” (priority 2018, published 2020)", "key": {"HPV-16 genome": {"test_system": "HPV-16 genome", "assay": "qPCR sensitivity against HPV-16 copy number (known-copy HPV-16 DNA among 10 ng normal human DNA)", "excerpt": "(§1) All samples were run in triplicates.\nTo seek the most promising primer-probe set in the viewpoint of sensitivity, Applicants evaluated the sensitivity analysis for these candidate primer-probe sets. […] Therefore, the sensitivity of E6 (FIG. 3A) and E7 (FIG. 3B) was also 30 copies. […] The candidate primer-probe sets were the “Min-4” (FIG. 3C), “Min-5” (FIG. 3D), “Min-6” (FIG. 3E), “Max-10” (FIG. 3F), “E6-11” (FIG. 3G), “E6-13” (FIG. 3H), respectively.\nIn addition, Applicants performed sensitivity analysis to identify the most sensitive primer/probe set from among the candidate sets.\nTo validate the function of primer/probe sets, Applicants calculated the slope of delta Rn against cycle threshold for HPV-16 copy number detection from defined HPV copy number DNA derived from CaSki cell line."}, "HPV-16 [1]": {"test_system": "HPV-16", "assay": "qPCR on 20 ng DNA from saliva samples of HPV-HNSCC patients", "conditions": "28 HPV-HNSCC saliva samples", "experimental": "as §1\nThe sensitivity of detection from saliva 20 ng DNA samples is 32.1% (9/28) in E6 primer-probe sets, 42.9% (12/28) in E7 primer-probe sets, 35.7% (10/28) in “Min-5” primer-probe sets, 46.4% (13/28) in “Max-10” primer-probe sets. The sensitivity of combination of “5” and “10” is 50% (14/28) and that of E6 and E7 is 42.9% (12/28). By the standard curve analysis, the copy numbers that detected by “Max-10” primer-probe sets were the highest in these 4 primer-probe sets. The slope of standard curve is −3.5 in “Min-5” primer-probe sets when delta Rn is plotted against cycle threshold (FIG. 5)."}, "HPV-16 [2]": {"test_system": "HPV-16", "assay": "qPCR sensitivity against HPV-HNSCC tumor samples diluted among 10 ng normal human DNA", "description": "Quantitative real-time polymerase chain reaction (qRT-PCR) was used to examine the threshold in each experiment. qRT-PCR was performed using Quant Studio 6 Flex Real-Time PCR System (Thermo Fisher Scientific). All samples were run in triplicates. HPV-16 viral amplicon copy number estimations were developed using the CaSki cell line. After amplification of the amplicon by PCR, DNA concentration was calculated by weight NanoDrop®, then converted to DNA copy number by calculation based on the molecular weight of the double stranded amplicon. […] In the other 32 HPV-HNSCC cohort, Applicants diluted the tumor sample to 990 pg, 198 pg, 99 pg, 39.6 pg, 7.9 pg, 3.2 pg, and 1.6 pg of amount tumor weight, (correspond to 150, 30, 15, 6, 1.2, 0.6, and 0.3 cells: assumption that 1 tumor cell have 6.6 pg DNA (=3*10^9 (human DNA genome bp)*2 (diploid)*1.67*10^(−24) g (weight/Dalton))) combined with 10 ng normal leukocyte human DNA and compare the threshold of each primer-probe sets.\nIn this regard, Applicants investigated the other 32 HPV-HNSCC tumor samples. From the assumption that 1 cell tumor DNA contain 6.6 pg DNA, Applicants made the dilution series by DNA derived from normal lymphocyte as described and decide the threshold for each primer-probe set.\nFurthermore, to determine whether these designed primer/probe sets also have a high sensitivity in a separate cohort, Applicants performed PCR in a validation cohort of 32 additional primary tumor samples with validated presence of HPV-16. Applicants prepared serial of dilutions of tumor DNA in normal lymphocyte DNA from non-cancer individuals and determined the threshold for each primer/probe set and defined amplification thresholds expressed in number of tumor cells for each sample (Table 5)."}, "[3]": {"conditions": "among 10 ng normal DNA, triplicate qPCR"}, "[4]": {"conditions": "samples tested 3 times, 10 ng DNA from healthy individual"}, "[5]": {"conditions": "tumor DNA dilution, fraction of 32 samples"}}, "note": "Entries after “also recorded” stand apart in the source; their conditions may differ.", "data": [{"molecule": "E6: previously designed (historical) HPV-16 E6 primers and Taqman probe, SEQ ID NO: 7-9, positive control (nucleic acid, Taqman probe, labels not given here) DNA 1: TCAGGACCCACAGGAGCG DNA 2: CCTCACGTCGCAGTAACTGTTG DNA 3: CCCAGAAAGTTACCACAGTTATGCACAGAGCT", "values": [{"measurement": "sensitivity (HPV-16 copies)", "setting": "HPV-16 genome; HPV-16 genome among normal 10 ng DNA samples, consistent triplicate reaction", "value": 30, "unit": "copies"}, {"measurement": "reaction under 10 copies of HPV-16 genome", "setting": "HPV-16 genome; [3]", "value": "reacted inconsistently"}, {"measurement": "reaction under 30 copies of HPV-16 genome", "setting": "HPV-16 genome; [3]", "value": "reacted consistently triplicate; also recorded: reacted consistently in triplicates"}, {"measurement": "number of reactions against 10 HPV-16 copies", "setting": "HPV-16 genome; [4]", "value": "one"}, {"measurement": "number of reactions under 30 HPV-16 copies", "setting": "HPV-16 genome; [4]", "value": 3, "unit": "reactions"}, {"measurement": "sensitivity of detection from saliva 20 ng DNA samples", "setting": "HPV-16 [1]", "value": 32.1, "unit": "%"}, {"measurement": "sensitivity under 100 cells", "setting": "HPV-16 [2]; 32 HPV-HNSCC tumor samples", "value": 90.6, "unit": "%"}, {"measurement": "sensitivity under single cells", "setting": "HPV-16 [2]; 32 HPV-HNSCC tumor samples, 6.6 pg DNA", "value": 12.5, "unit": "%"}, {"measurement": "sensitivity under 10 cells", "setting": "HPV-16 [2]; 32 HPV-HNSCC tumor samples, 66 pg DNA", "value": 53.1, "unit": "%"}, {"measurement": "Threshold of tumor cell numbers for HPV-16 detection", "setting": "HPV-16 [2]; Sample # 1", "value": 150.0, "unit": "tumor cells"}, {"measurement": "Threshold of tumor cell numbers for HPV-16 detection", "setting": "HPV-16 [2]; Sample # 2", "value": 30.0, "unit": "tumor cells"}, {"measurement": "Threshold of tumor cell numbers for HPV-16 detection", "setting": "HPV-16 [2]; Sample # 3", "value": 6.0, "unit": "tumor cells"}, {"measurement": "Threshold of tumor cell numbers for HPV-16 detection", "setting": "HPV-16 [2]; Sample # 4", "value": 150.0, "unit": "tumor cells"}, {"measurement": "Threshold of tumor cell numbers for HPV-16 detection", "setting": "HPV-16 [2]; Sample # 5", "value": 30.0, "unit": "tumor cells"}, {"measurement": "Threshold of tumor cell numbers for HPV-16 detection", "setting": "HPV-16 [2]; Sample # 6", "value": 150.0, "unit": "tumor cells"}, {"measurement": "Threshold of tumor cell numbers for HPV-16 detection", "setting": "HPV-16 [2]; Sample # 7", "value": 30.0, "unit": "tumor cells"}, {"measurement": "Threshold of tumor cell numbers for HPV-16 detection", "setting": "HPV-16 [2]; Sample # 8", "value": 15.0, "unit": "tumor cells"}, {"measurement": "Threshold of tumor cell numbers for HPV-16 detection", "setting": "HPV-16 [2]; Sample # 9", "value": 60.0, "unit": "tumor cells"}, {"measurement": "Threshold of tumor cell numbers for HPV-16 detection", "setting": "HPV-16 [2]; Sample # 10", "value": 30.0, "unit": "tumor cells"}, {"measurement": "Threshold of tumor cell numbers for HPV-16 detection", "setting": "HPV-16 [2]; Sample # 11", "value": 60.0, "unit": "tumor cells"}, {"measurement": "Threshold of tumor cell numbers for HPV-16 detection", "setting": "HPV-16 [2]; Sample # 12", "value": 15.0, "unit": "tumor cells"}, {"measurement": "Threshold of tumor cell numbers for HPV-16 detection", "setting": "HPV-16 [2]; Sample # 13", "value": 6.0, "unit": "tumor cells"}, {"measurement": "Threshold of tumor cell numbers for HPV-16 detection", "setting": "HPV-16 [2]; Sample # 14", "value": 6.0, "unit": "tumor cells"}, {"measurement": "Threshold of tumor cell numbers for HPV-16 detection", "setting": "HPV-16 [2]; Sample # 15", "value": 6.0, "unit": "tumor cells"}, {"measurement": "Threshold of tumor cell numbers for HPV-16 detection", "setting": "HPV-16 [2]; Sample # 16", "value": 6.0, "unit": "tumor cells"}, {"measurement": "Threshold of tumor cell numbers for HPV-16 detection", "setting": "HPV-16 [2]; Sample # 17", "value": 30.0, "unit": "tumor cells"}, {"measurement": "Threshold of tumor cell numbers for HPV-16 detection", "setting": "HPV-16 [2]; Sample # 18", "value": 6.0, "unit": "tumor cells"}, {"measurement": "Threshold of tumor cell numbers for HPV-16 detection", "setting": "HPV-16 [2]; Sample # 19", "value": 1.2, "unit": "tumor cells"}, {"measurement": "Threshold of tumor cell numbers for HPV-16 detection", "setting": "HPV-16 [2]; Sample # 20", "value": 0.5, "unit": "tumor cells"}, {"measurement": "Threshold of tumor cell numbers for HPV-16 detection", "setting": "HPV-16 [2]; Sample # 21", "value": 1.2, "unit": "tumor cells"}, {"measurement": "Threshold of tumor cell numbers for HPV-16 detection", "setting": "HPV-16 [2]; Sample # 22", "value": 0.3, "unit": "tumor cells"}, {"measurement": "Threshold of tumor cell numbers for HPV-16 detection", "setting": "HPV-16 [2]; Sample # 23", "value": 1.2, "unit": "tumor cells"}, {"measurement": "Threshold of tumor cell numbers for HPV-16 detection", "setting": "HPV-16 [2]; Sample # 24", "value": 1.2, "unit": "tumor cells"}, {"measurement": "Threshold of tumor cell numbers for HPV-16 detection", "setting": "HPV-16 [2]; Sample # 25", "value": 0.3, "unit": "tumor cells"}, {"measurement": "Threshold of tumor cell numbers for HPV-16 detection", "setting": "HPV-16 [2]; Sample # 26", "value": 0.6, "unit": "tumor cells"}, {"measurement": "Threshold of tumor cell numbers for HPV-16 detection", "setting": "HPV-16 [2]; Sample # 27", "value": 15.0, "unit": "tumor cells"}, {"measurement": "Threshold of tumor cell numbers for HPV-16 detection", "setting": "HPV-16 [2]; Sample # 28", "value": 3.0, "unit": "tumor cells"}, {"measurement": "Threshold of tumor cell numbers for HPV-16 detection", "setting": "HPV-16 [2]; Sample # 29", "value": 3.0, "unit": "tumor cells"}, {"measurement": "Threshold of tumor cell numbers for HPV-16 detection", "setting": "HPV-16 [2]; Sample # 30", "value": 15.0, "unit": "tumor cells"}, {"measurement": "Threshold of tumor cell numbers for HPV-16 detection", "setting": "HPV-16 [2]; Sample # 31", "value": 3.0, "unit": "tumor cells"}, {"measurement": "Threshold of tumor cell numbers for HPV-16 detection", "setting": "HPV-16 [2]; Sample # 32", "value": 15.0, "unit": "tumor cells"}, {"measurement": "Sensitivity, 1 cell", "setting": "HPV-16 [2]; [5]", "value": 0.125}, {"measurement": "Sensitivity, 3 cells", "setting": "HPV-16 [2]; [5]", "value": 0.250}, {"measurement": "Sensitivity, 10 cells", "setting": "HPV-16 [2]; [5]", "value": 0.531}, {"measurement": "Sensitivity, 30 cells", "setting": "HPV-16 [2]; [5]", "value": 0.844}, {"measurement": "Sensitivity, 100 cells", "setting": "HPV-16 [2]; [5]", "value": 0.906}]}]}
